Laboratory results taken from US20240417484A1, “ANTIGEN-BINDING POLYPEPTIDES AGAINST CD73” (UNIVERSITÄTSKLINIKUM HAMBURG-EPPENDORF, priority 2021, published 2024).
Where a chain is given by its changes, count along the chain named. Values belong to the molecule of their own block, whether it stands above or below them.

How the values were obtained:
[1] = molecular target: T1, recombinant human CD73 ectodomain (aa 27-549) with C-terminal His6x tag (human, UniProt P21589 27-549); test: BLI (Octet), immobilized Nb-rbIgG hcAb, soluble human CD73 as analyte
T1 construct: also called soluble recombinant human CD73; soluble human CD73
T1 sequence: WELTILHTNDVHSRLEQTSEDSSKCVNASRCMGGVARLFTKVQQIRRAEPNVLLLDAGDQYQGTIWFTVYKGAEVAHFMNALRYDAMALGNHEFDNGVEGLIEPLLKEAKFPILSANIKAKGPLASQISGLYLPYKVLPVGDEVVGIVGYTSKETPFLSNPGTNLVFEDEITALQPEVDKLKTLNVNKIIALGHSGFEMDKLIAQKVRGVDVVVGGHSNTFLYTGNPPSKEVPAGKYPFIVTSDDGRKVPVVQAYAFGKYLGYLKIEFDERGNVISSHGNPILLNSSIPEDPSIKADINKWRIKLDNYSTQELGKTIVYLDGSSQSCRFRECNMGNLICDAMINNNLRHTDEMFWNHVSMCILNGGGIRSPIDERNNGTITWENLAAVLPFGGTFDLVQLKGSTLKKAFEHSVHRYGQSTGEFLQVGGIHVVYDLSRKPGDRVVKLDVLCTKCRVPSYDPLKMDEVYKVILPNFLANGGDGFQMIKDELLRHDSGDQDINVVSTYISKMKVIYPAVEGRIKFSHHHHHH
Protocol: (§1) The binding off-rate constants of bivalent hcAbs to human and mouse CD73 protein were determined by […] kinetic analysis on Octet RED96 (ForteBio). Immobilization of rabbit IgG hcAbs on the protein A-biosensor surface was done in HEK-6E cell supernatant, and regeneration of analytes was done with 100 mM Glycin pH=2.5. Recombinant mouse or human CD73 ectodomain was used as analytes and tested at a saturating dose of 200 ng/μl. Sensorgrams were fitted using least square regression in association than dissociation Model in Prism8 (Graphpad).

[2] = molecular target: T2, soluble human CD73 (Homo sapiens, UniProt P21589); test: Off-rates of soluble CD73 from immobilized Nb-rbIgG hcAb on Octet BLI; assay type: binding; settings: soluble human CD73 ectodomain 200 ng/μl as analyte; Nb-rbIgG hcAb immobilized on protein A biosensor
T2 construct: The ectodomain of CD73 (aa 27-549) was expressed as a recombinant protein with a C-terminal His6× tag; His6 (C); made in house; host or cells: transiently transfected HEK cells
T2 sequence (P21589 27-549): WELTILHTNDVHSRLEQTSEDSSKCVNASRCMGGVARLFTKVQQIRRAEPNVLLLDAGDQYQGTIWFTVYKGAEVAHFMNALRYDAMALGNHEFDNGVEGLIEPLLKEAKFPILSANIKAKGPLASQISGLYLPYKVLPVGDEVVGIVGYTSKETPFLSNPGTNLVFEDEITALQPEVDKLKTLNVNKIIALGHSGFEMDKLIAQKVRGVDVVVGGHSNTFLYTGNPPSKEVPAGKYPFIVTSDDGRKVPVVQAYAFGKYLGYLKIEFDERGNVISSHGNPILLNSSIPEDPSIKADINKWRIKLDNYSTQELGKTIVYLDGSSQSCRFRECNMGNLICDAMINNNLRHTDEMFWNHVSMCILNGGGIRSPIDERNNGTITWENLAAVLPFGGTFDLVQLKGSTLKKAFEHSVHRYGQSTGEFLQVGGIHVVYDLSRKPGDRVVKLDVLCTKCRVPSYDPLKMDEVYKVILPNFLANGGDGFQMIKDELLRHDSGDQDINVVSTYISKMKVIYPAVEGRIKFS
Protocol: as §1

[3] = molecular target: T2, soluble human CD73; test: AMP hydrolysis by soluble CD73, DPEA-Napht-Azide fluorescence assay; assay type: biochemical; settings: 50 ng CD73, 30 min pre-incubation with 10 μl hcAb supernatant, 1 mM AMP
Protocol: Recombinant human CD73 (50 ng) was pre-incubated for 30 min with hcAbs at RT in 96 well plates before addition of AMP and DPEA-Napht-Azide. Fluorescence signals were detected every 50 seconds for 30 repeats. ARFU values (>10^3/min) were calculated for a 10 min interval during the linear phase (from 5 min to 15 min) using Prism software (Graphpad). A non-specific rabbit IgG hcAb was used as control.
• 4.1 CD73 catalyzes the hydrolysis of AMP to adenosine. This reaction can be monitored by the shift in fluorescence intensity of DPEA-Napht-Azide. This property was used to determine whether hcAbs could interfere with the enzymatic activity of CD73. Soluble recombinant human CD73 (50 ng) was pre-incubated for 30 min with Nbs or hcAbs (10 μl HEK-6E cell supernatant containing 10-100 μg/ml hcAb) at RT in 96 well plates before addition of AMP (Sigma) to a final concentration of 1 mM and of DPEA-Napht-Azide to a final concentration of 50 μM. • 4.2 Fluorescence signals were recorded in white Nunc MicroWell plates (Nunc, 136101) on a Victor III plate reader (Perkin Elmer) (Exicitation filter: F485, Emission Filter: F535; CW-Lamp energy: 40000, counting time: 0.1 s). Data analyses were performed using Prism (Graphpad).
Soluble recombinant human CD73 (50 ng) was pre-incubated for 30 min with CD73-specific hcAbs or an irrelevant control hcAb (10 μl HEK-6E cell supernatant) at RT in 96 well plates before addition of AMP (Sigma) to a final concentration of 1 mM and of DPEA-Napht-Azide to a final concentration of 50 μM. Fluorescence signals were detected every 50 seconds for 30 repeats. Data analyses were performed using Prism (Graphpad).

B2: SB124: CD73-specific alpaca VHH clone, family 1, SEQ ID NO:65; tested as rabbit IgG hcAb (antibody)
heavy: QVQLQESGGGLVQPGGSLRLSCAASGFTLDYYTIGWFRQAPGKEREGVSCVSSSGDRTDYLESVKGRLTISRDNAKNTVYLQMNSLKPEDTGVYYCAAQKYYYCSGKVEVYDYWGQGTQVTVSS
modifications: left off: a dimerising Fc or GST
notes: tested as rabbit IgG hcAb
Kdis [2]: 0.0011 s⁻¹

B5: SB123: CD73-specific alpaca VHH clone, family 1, SEQ ID NO:64; tested as rabbit IgG hcAb (antibody)
heavy: DVQLQESGGGLVQPGGSLTLSCAASGFTLDYLSIGWFRQVPGKEREGVSCINSSGGSTNYADSVKGRLTISRDNAKNTVYLQINSLKPEDTAVYYCAAHKYYYCSNKVAVFDYWGQGTQVTVSS
modifications: left off: a dimerising Fc or GST
notes: tested as rabbit IgG hcAb
Kdis [2]: 4.3e-05 s⁻¹

B6: SB125 rabbit IgG hcAb (Fc fusion)
heavy: QVQLQESGGGLVQPGGSLRLSCAVSGFALDYYTIGWFRQAPGKEREGVSCISSSGGSTNYADSVKGRLTISRDNAKNTVYLQMNSLKPEDTAVYYCAAQRYYYCSDKVEVYDYWGQGTQVTVSS
notes: not shown: hinge and Fc-domains of rabbit IgG
koff [1]: 0.00058 s⁻¹

B9: SB108: CD73-specific alpaca VHH clone, family 1, SEQ ID NO:67; tested as rabbit IgG hcAb (antibody)
heavy: B6 heavy with Q3K, Q13H, P14S, G56S, V64M, E109A
modifications: left off: a dimerising Fc or GST
notes: tested as rabbit IgG hcAb
effect on hydrolysis of AMP by soluble CD73 [3]: inhibited CD73 catalyzed hydrolysis of AMP | Kdis [2]: 9.7e-05 s⁻¹

B10: SB124 rabbit IgG hcAb (Fc fusion)
heavy: B2 heavy
notes: as for B6
koff [1]: 0.0011 s⁻¹

B11: SB115 rabbit IgG hcAb (Fc fusion)
heavy: DVQLQASGGGLVQPGGSLRLSCVVSGFTLDYYTIGWFRQAPGKEREGVSCINSSGGVTNYADSVKGRFTISRDNAKNTVYLQMNSLKSEDTAVYYCAAQKYYYCSRKGEVYDSWGQGTQVTVSS
notes: as for B6
koff [1]: 0.00035 s⁻¹

B13: SB98 rabbit IgG hcAb (Fc fusion)
heavy: B6 heavy with Q3K, V24A, A28T, S57I, R100K, D106G, V108A
notes: as for B6
koff [1]: 0.0018 s⁻¹

B14: SB107: CD73-specific alpaca VHH clone, family 1, SEQ ID NO:66; tested as rabbit IgG hcAb (antibody)
heavy: QVQLQESGGGLVQPGGSLRLSCAASGFTLDYLTIGWFRQAPGKEREGVSCINSNGGSTIYADSVKGRLTISRDNAKNTVYLQINSLKPDDTAVYFCAAQKYYYCSGRVEVYDYWGQGIQVTVSS
modifications: left off: a dimerising Fc or GST
notes: tested as rabbit IgG hcAb
effect on hydrolysis of AMP by soluble CD73 [3]: inhibited CD73 catalyzed hydrolysis of AMP

The next lines start with results.

koff [1]: 0.00036 s⁻¹
B1: SB142 rabbit IgG hcAb (Fc fusion)
heavy: QVQLVESGGGLVQPGGSLRLSCAASGFTFINYHMSWLRQAPGKGLEWVSEIHSRGDITSYTNSVKGRFTISRDNAKNTLYLQMNSLKFDDTAVYYCARSRDLFGEGEYDYWGRGTQVTVSS
notes: as for B6

Kdis [2]: 0.00035 s⁻¹
B3: SB115: CD73-specific alpaca VHH clone, family 1, SEQ ID NO:63; tested as rabbit IgG hcAb (antibody)
heavy: B11 heavy
modifications: left off: a dimerising Fc or GST
notes: tested as rabbit IgG hcAb
effect on hydrolysis of AMP by soluble CD73 [3]: inhibited CD73 catalyzed hydrolysis of AMP

koff [1]: 4.3e-05 s⁻¹
B4: SB123 rabbit IgG hcAb (Fc fusion)
heavy: B5 heavy
notes: as for B6

Kdis [2]: 0.00058 s⁻¹
B7: SB125: CD73-specific alpaca VHH clone, family 1, SEQ ID NO:68; tested as rabbit IgG hcAb (antibody)
heavy: B6 heavy
modifications: left off: a dimerising Fc or GST
notes: tested as rabbit IgG hcAb

Kdis [2]: 0.0018 s⁻¹
B8: SB98: CD73-specific alpaca VHH clone, family 1, SEQ ID NO:62; tested as rabbit IgG hcAb (antibody)
heavy: B6 heavy with Q3K, V24A, A28T, S57I, R100K, D106G, V108A
modifications: left off: a dimerising Fc or GST
notes: tested as rabbit IgG hcAb

koff [1]: 9.7e-05 s⁻¹
B12: SB108 rabbit IgG hcAb (Fc fusion)
heavy: B6 heavy with Q3K, Q13H, P14S, G56S, V64M, E109A
notes: as for B6
